# B1: His-tagged Akirin (natural protein, Drosophila melanogaster, UniProt Q9VS59 1-201, looked up)
# chain: MACATLKRALDWESMNQRPPKRRRCNPFGQAGSNAGPASPSRDGPSTSAGLPHTPSNRFAKDSTEPSPFSESSLAKMSPDKMAESLCNEIKRLHKRKQLPITSSALERMQDSESSGSEMGPESPRRPDSPQNLMRHGEKALFTFKQVQLICESMIKERENQLRERYESVLTTKLAEQYDAFVKFTYDQIQRRYEAAPSYLS
# Target: T1, Flag-tagged RelishΔS29-S45 (Drosophila melanogaster, UniProt Q94527 1-971, ΔS29-S45)
# T1 sequence (looked up): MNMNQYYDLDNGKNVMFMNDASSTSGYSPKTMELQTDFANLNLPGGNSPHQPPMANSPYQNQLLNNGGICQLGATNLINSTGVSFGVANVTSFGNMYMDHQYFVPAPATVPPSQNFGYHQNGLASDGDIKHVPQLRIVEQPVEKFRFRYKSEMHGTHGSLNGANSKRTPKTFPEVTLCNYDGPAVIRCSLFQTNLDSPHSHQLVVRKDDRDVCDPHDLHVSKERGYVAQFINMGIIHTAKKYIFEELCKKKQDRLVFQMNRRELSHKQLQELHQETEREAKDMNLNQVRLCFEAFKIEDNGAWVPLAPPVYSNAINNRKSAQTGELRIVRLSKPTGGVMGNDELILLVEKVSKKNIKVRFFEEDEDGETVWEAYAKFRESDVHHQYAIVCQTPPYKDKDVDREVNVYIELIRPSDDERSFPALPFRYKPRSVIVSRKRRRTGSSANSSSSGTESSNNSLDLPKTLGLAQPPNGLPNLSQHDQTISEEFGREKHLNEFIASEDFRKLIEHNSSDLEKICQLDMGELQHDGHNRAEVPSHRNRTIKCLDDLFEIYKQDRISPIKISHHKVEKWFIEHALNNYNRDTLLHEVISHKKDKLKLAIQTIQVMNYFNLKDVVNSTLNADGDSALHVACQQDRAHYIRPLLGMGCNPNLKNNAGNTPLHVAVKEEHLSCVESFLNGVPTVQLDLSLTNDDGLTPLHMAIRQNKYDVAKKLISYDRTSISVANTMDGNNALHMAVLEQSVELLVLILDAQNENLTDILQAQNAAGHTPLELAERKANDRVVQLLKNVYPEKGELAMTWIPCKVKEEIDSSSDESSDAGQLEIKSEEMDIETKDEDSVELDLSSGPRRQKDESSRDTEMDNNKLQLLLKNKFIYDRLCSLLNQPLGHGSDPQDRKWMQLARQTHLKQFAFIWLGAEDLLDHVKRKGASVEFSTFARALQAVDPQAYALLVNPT
# Test: co-IP
binder,measurement,value
B1,binding result,binds
